This is an account of results in article PMC6529632, “Robust Stoichiometry of FliW-CsrA Governs Flagellin Homeostasis and Cytoplasmic Organization in Bacillus subtilis” (mBio, 2019).

Numbering of substitutions follows the chain as printed. Numbers in names are those of the source.

In data set [1] the target is T1, CsrA-Hetero (CsrA-WT-His6/CsrA-N55D-strep) N55D (Bacillus subtilis (3610?)) (UniProt P33911+P33911).
T1 sequence 1: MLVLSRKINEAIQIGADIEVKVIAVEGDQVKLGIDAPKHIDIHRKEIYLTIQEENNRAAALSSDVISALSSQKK
T1 sequence 2: T1 sequence 1 with N55D
Briefly: EMSA. The settings on record: 40 mM Tris-HCl pH 7.5, 4 mM MgCl2, 100 mM KCl, 20 ng/ul yeast RNA, 20 mM DTT, 10% glycerol, 4 U RNase inhibitor, 20 pM RNA, 37 C 30 min (FliW added for a …). (In general: In EMSA bound probe runs differently from free probe, usually more slowly.)

Data set [2] concerns the target T2, CsrA-N55D-strep N55D (Bacillus subtilis (3610?)) (UniProt P33911).
T2 sequence: T1 sequence 1 with N55D
Briefly: EMSA. To be noted: 40 mM Tris-HCl pH 7.5, 4 mM MgCl2, 100 mM KCl, 20 ng/ul yeast RNA, 20 mM DTT, 10% glycerol, 4 U RNase inhibitor, 20 pM RNA, 37 C 30 min (FliW added for a …).

Data set [3] deals with T3, CsrA-WT-His6 (Bacillus subtilis (3610?)) (UniProt P33911).
T3 sequence: T1 sequence 1
Briefly: EMSA. The settings on record: 40 mM Tris-HCl pH 7.5, 4 mM MgCl2, 100 mM KCl, 20 ng/ul yeast RNA, 20 mM DTT, 10% glycerol, 4 U RNase inhibitor, 20 pM RNA, 37 C 30 min (FliW added for a …).

Data set [4] addresses T4, FliW (Bacillus subtilis (3610?)) (UniProt P96503).
T4 sequence: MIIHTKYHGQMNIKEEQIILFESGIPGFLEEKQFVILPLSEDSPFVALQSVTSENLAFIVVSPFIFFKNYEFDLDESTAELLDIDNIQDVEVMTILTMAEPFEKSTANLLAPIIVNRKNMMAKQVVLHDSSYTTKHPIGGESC
Briefly: EMSA. To be noted: 40 mM Tris-HCl pH 7.5, 4 mM MgCl2, 100 mM KCl, 20 ng/ul yeast RNA, 20 mM DTT, 10% glycerol, 4 U RNase inhibitor, 20 pM RNA, 37 C 30 min (FliW added for a …).

The test system of data set [5] is CsrA-Hetero (CsrA-WT-His6/CsrA-N55D-strep) (Bacillus subtilis (3610?)). The data set can be described thus: EMSA. To be noted: apparent Kd; main text gives 460 nM; 40 mM Tris-HCl pH 7.5, 4 mM MgCl2, 100 mM KCl, 20 ng/ul yeast RNA, 20 mM DTT, 10% glycerol, 4 U RNase inhibitor, 20 pM RNA, 37 C 30 min (FliW added for a …).
Data set [6] has as its system CsrA-N55D-strep (Bacillus subtilis (3610?)). Briefly: EMSA. To be noted: apparent Kd; 40 mM Tris-HCl pH 7.5, 4 mM MgCl2, 100 mM KCl, 20 ng/ul yeast RNA, 20 mM DTT, 10% glycerol, 4 U RNase inhibitor, 20 pM RNA, 37 C 30 min (FliW added for a …).
The subject of data set [7] is CsrA-WT-His6 (Bacillus subtilis (3610?)). The data set can be described thus: EMSA. The settings on record: apparent Kd; main text gives 290 nM; 40 mM Tris-HCl pH 7.5, 4 mM MgCl2, 100 mM KCl, 20 ng/ul yeast RNA, 20 mM DTT, 10% glycerol, 4 U RNase inhibitor, 20 pM RNA, 37 C 30 min (FliW added for a …).
Data set [8] relates to FliW (Bacillus subtilis (3610?)). The data set can be described thus: EMSA. The settings on record: apparent Kd; FliW alone; 40 mM Tris-HCl pH 7.5, 4 mM MgCl2, 100 mM KCl, 20 ng/ul yeast RNA, 20 mM DTT, 10% glycerol, 4 U RNase inhibitor, 20 pM RNA, 37 C 30 min (FliW added for a …).
Data set [9] concerns the target T5, CsrA^N55D-strep (monomer co-expressed with CsrA^WT-His6) (Bacillus subtilis, UniProt P33911 1-74, N55D).
T5 construct: CsrA of Bacillus subtilis with N55D; Same chain as in m2 and m3; Written as a single chain for the pair row of the heterodimer; also called CsrA^N55D-strep tag; source: Rosetta-gami E. coli, co-expressed with CsrA^WT-His6 from dual-expression vector pRO76
T5 sequence (looked up): T1 sequence 1 with N55D
Briefly: sequential affinity co-purification with SDS-PAGE; both chains co-expressed from one vector in E. coli; Ni-NTA by the His6 tag, then Strep-Tactin by the Strep tag, then size exclusion; Coomassie-stained denaturing gel, densitometry. The settings on record: partners not purified.

Regarding “GGUAGCCGGGAGGAGGCGCAAAAGACUCAGCCAGUUACAAAAUAAGGGCACAAGGACGUGCCUUAACAACAUAUUCAGGGAGGAACAAAACAAUGAGAAUU [hag 5' UTR transcript +1 to +100]”, the Kd turned out to be 458 nM in [1], 960 nM in [2], 287 nM in data set [3] and 1110 nM in data set [4]. Besides, the binding entry in data set [2] was “binds”.
Regarding hag 5' UTR transcript +1 to +100, the Kd in [5] turned out to be 458 nM; in data set [6], 960 nM; in data set [7], 287 nM; in [8] it was 1110 nM.

B1: CsrA^WT-His6 (monomer co-expressed with CsrA^N55D-strep) (natural protein, Bacillus subtilis, UniProt P33911 1-74, looked up)
chain: T1 sequence 1
notes: CsrA of Bacillus subtilis, wild type, amplified from pCSB9; Same chain as in m1 and m3; Written as a single chain for the pair row of the heterodimer; also called CsrA-His6; source: Rosetta-gami E. coli, co-expressed with CsrA^N55D-strep from dual-expression vector pRO76
Regarding B1, the “stoichiometry N” value in [9] amounted to 0.88.

The term stoichiometry N denotes the number of molecules, sites or subunits per partner or assembly.
